Laboratory results as given in the RNAGym collection of RNA variant scans (doi:10.1073/pnas.2313332121).

B1: TPR t1 (parent)
chain: GACCAAUCUGCCCUCAGAGCUCGAGAACAUCUUCGGAUGCAGAGGAGGCAGGCUUCGGUGGCGCGAUAGCGCCAACGUCCUCAACCUCCAAUGCAUCCCACCACAUGAUGAUGCCUGAAGAGCCUUGGUUUUUUG

Variants of: B1
Assay: polymerase ribozyme fitness, log enrichment relative to wild type (log ratio); higher = more active; in vitro selection for triplet polymerase activity
In short: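 Mutant libraries of both subunits of a heterodimeric triplet polymerase ribozyme were PCR-built, transcribed, and selected once in triplicate, with frozen incubation at −7 °C and capture of gel-excised extended constructs on streptavidin beads before RT-PCR. Illumina sequencing of input and output libraries was filtered to genotypes with ≥10 input reads and ≥1 read per output. Fitness is the logarithm of genotype enrichment over wild-type enrichment, using inverse-variance-weighted replicate averages. The logarithm is base 2.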

| Variant | polymerase ribozyme fitness (log ratio) |
| --- | --- |
| C8A C22U U129G | -4.85 |
| C8A C20U G60A C88A | -1.93 |
| C8A A24C C31U U38A G45U C56G C70G C80A A111U G117C | -6.01 |
| U7G C12U A37G A43G G61A A91C | -0.427 |
| C8A A119G U126G | -0.311 |
| C8A A41U A84G | -2.05 |
| U7G C49A C70U C85G U130A | -2.22 |
| U7G G107U A121U G128C | -5.22 |
| U7C G61A U87G | 0.298 |
| U7G C28U G48A | -1.75 |
| U7G G77C C97U U109A | -6.1 |
| U7G C34U G58A | -5.02 |
| C8A C20A G71U | -2.77 |
| C8A C12G C64U G110U | -0.685 |
| U7G C8G G44A G120A C124A | 1.06 |
| C8A C12U A43U G51U C56U U81C C85A C97A A111G | -6.23 |
| U7C C15U G45A U92A | -4.93 |
| U7G C15A A16G C53A C64U | -1.35 |
| U7G G48A C70A C101A | -2.19 |
| C8A C56U G69C U112A G120A | -7.42 |
| U7G G45C G77A C82A C98A | -6.73 |

| Variant | polymerase ribozyme fitness (log ratio) |
| --- | --- |
| U7G G48U U59C C86G | -1.39 |
| U7G C11U G69C C88A | -1.91 |
| U7C G71A | -0.421 |
| U7G G63C A91U | -2.27 |
| U7C G17A A24G A26C C49A C56U C73G U87C G113A | -7 |
| U7G C56U | 0.612 |
| U7G C34U G69U C123U U133C | 1.52 |
| U7G A18G U38G A50C C53U G113U | -2.37 |
| U7G A29G C89A C115A G122A | -1.64 |
| U7G A41U U59G C73U A121C | 0.0183 |
| U7G G61A | 0.0552 |
| U7G C79U C124A | 2.08 |
| U7G G35C U130G | -4.31 |
| C8A C11G U54C U106A | 0.24 |
| C8A A18C C34G A43U | -7.06 |
| U7G U14A C56U U78C A84C C101A | -1.53 |
| C8A A68G C73G U78G C101U U112A | -5.78 |
| C8A A26U C89G C94U C124G U125G G127U | -3.87 |
| U7G G63A C102U | -3.01 |
| C8A C22G A121U | -1.6 |
| U7C G44A C79U C86U | -1.45 |

| Variant | polymerase ribozyme fitness (log ratio) |
| --- | --- |
| U7C C13U | 0.52 |
| U7C C13G | 0.00167 |
| U7G G10A C49U U112G G135U | -0.92 |
| U7G U106C | 1.03 |
| C8A C12G C15U A18U C70U G110U U125G | -5.75 |
| C8A A24U G25U A43G C70G A105C U112G | -7.66 |
| U7G C8A G63U G65C | -6.38 |
| U7G C8A C15U G36A C56G C70G U78C C82G U106A | -4.94 |
| U7C C101U C104U | 0.219 |
| U7G C40U A43G G44U C70U U112C | -0.649 |
| C8A C40A A43G G60C | -3.55 |
| C8A C40A A43G G60A | -3.37 |
| C8A C12U G45U C62U C94G | -1.01 |
| C8A C12U C13G C98U | -1.16 |
| U7G G36A A50C | -0.431 |
| C8A C28G | -2.05 |
| C8A C22U G61A U129G | -4.98 |
| C8A C15A A41C C49A G58U G63U U131A | -3.62 |
| C8A C53A G69U A119G U131A U134G | 1.54 |
| C8A C34G G117C | -6.88 |
| U7C U78C C85A C124G | -0.586 |

| Variant | polymerase ribozyme fitness (log ratio) |
| --- | --- |
| U7C C85G | -1.66 |
| C8A A41C G44U C62U C99U A111U G127A | -7.45 |
| U7G | 0.469 |
| U7G C12U C20A | -1.34 |
| C8A A84U C102A | -1.91 |
| U7G C12G C13U A46U | -0.346 |
| U7G G10A A41G C73G C79A C80A C115A | -3.06 |
| U7G C31U G60A | -4.97 |
| C8A A90U | -0.513 |
| U7G C8G U106A C115A G127A | 2.21 |
| U7C C85A C104U U116C | -1.6 |
| U7G G63A C98A | -6.38 |
| U7C G36A U116C A118U U132A | -2.98 |
| C8A A50G A95C | 0.286 |
| U7C G47A G48A G69U U78C | -0.567 |
| C8A C34U | -4.29 |
| C8A C13G G61U A84U | -0.177 |
| C8A C40U | -0.324 |
| C8A C28G C64U C102A U109A | -4.53 |
| U7G C123A | 1.97 |
| U7G U21A A26G G47U C123U U129A U133G | -3.24 |
